In patent US20170114347:

Tests used:
Assay in all cases: cell_activity
[1] = system: ZC3H10 TALE-VP64 (Xanthomonas); conditions: CITED; U-2OS; cited from earlier work
[2] = system: TALE-activator Ntf3-4 (Xanthomonas); conditions: NTF3 mRNA in 293 cells; p65 version weaker
[3] = system: PUMA TALE-VP16 (Xanthomonas); conditions: CITED; cited from earlier work
[4] = system: TALE-activator Ntf3-5 (Xanthomonas); conditions: NTF3 mRNA in 293 cells; p65 version weaker
[5] = system: TALE-activator Ntf3-2 (Xanthomonas); conditions: NTF3 mRNA in 293 cells; p65 version weaker
[6] = system: OSGIN2 TALE-VP64 (Xanthomonas); conditions: CITED; U-2OS; cited from earlier work
[7] = system: IFNb1 TALE-VP16 (Xanthomonas); conditions: CITED; cited from earlier work
[8] = system: IFNa1 TALE-VP16 (Xanthomonas); conditions: CITED; cited from earlier work
[9] = system: NTF3 TALE-VP16 (Miller 2011) (Xanthomonas); conditions: CITED; HEK293; cited from earlier work
[10] = system: TALE-activator Ntf3-3 (Xanthomonas); conditions: NTF3 mRNA in 293 cells; p65 version weaker
[11] = system: TALE-activator Ntf3-1 (Xanthomonas); conditions: NTF3 mRNA in 293 cells; weakest about 1000-fold; p65 version weaker
[12] = system: KLF4 TALE-VP16 (Xanthomonas); conditions: CITED; cited from earlier work
[13] = system: SOX2 TALE-VP16 (Xanthomonas); conditions: CITED; cited from earlier work

## TACCATATCCCATCCAACTC (double strand) [ZC3H10 site]
[1]
  activity (fold activation): 1.3

## TACGCCTCAGACCTGATC (double strand) [Ntf3-4 site]
[2]
  activity (fold activation (approx.)): > 1000

## TACTTGGAGGCAGTCAAGT (double strand) [PUMA site]
[3]
  activity (fold activation): 1.5

## TCCCTCAATCTGGGAAAG (double strand) [Ntf3-5 site]
[4]
  activity (fold activation (approx.)): > 1000

## TCCGAACAGCTCCGCGCA (double strand) [Ntf3-2 site]
[5]
  activity (fold activation (approx.)): > 1000

## TCCTCCCCACCTTTAATTTT (double strand) [OSGIN2 site]
[6]
  activity (fold activation): 4.8

## TCTCATATAAATAGGCCAT (double strand) [IFNb1 site]
[7]
  activity (fold activation): 3.5

## TGGAAAGTGGCCCAGAAGCAT (double strand) [IFNa1 site]
[8]
  activity (fold activation): 3.1

## TGGAGCCATCTGGCCGGGT (double strand) [NTF3 site]
[9]
  activity (fold activation): 30

## TTCCCCTGCTGGGTAGTG (double strand) [Ntf3-3 site]
[10]
  activity (fold activation (approx.)): > 1000

## TTCTGTTCACGGGACTCA (double strand) [Ntf3-1 site]
[11]
  activity (fold activation (approx.)): > 1000

## TTCTTACTTATAAC (double strand) [KLF4 site]
[12]
  activity (fold activation): 2.2

## TTTATTCCCTGACA (double strand) [SOX2 site]
[13]
  activity (fold activation): 5.5
